Target: cyno LAIR-1-Fc (cynomolgus monkey)
Experiment: ELISA blocking: plate coated with 5 µg/mL human collagen type 1, antibody titrated, 1 µg/mL biotinylated cyno LAIR-1-Fc, streptavidin-HRP, OD650

Sequence of cyno LAIR-1-Fc (cynomolgus monkey) (chain, as listed by the source limits assumed, form in doubt): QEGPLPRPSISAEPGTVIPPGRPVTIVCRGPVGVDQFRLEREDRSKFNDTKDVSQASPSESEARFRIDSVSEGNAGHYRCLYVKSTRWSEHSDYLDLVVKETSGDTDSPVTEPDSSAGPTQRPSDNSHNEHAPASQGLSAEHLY

B1: humanized anti-LAIR-1 antibody Hz47H1.v4 (antibody, human IgG1, kappa, N297G, V domains shown)
VH: EVQLVESGGGLVQPGGSLRLSCAASGFTFNINAMNWVRQAPGKGLEWVARIRTKNYNYATFYADSVKDRFTISRDDSKNSLYLQMNSLKTEDTAVYYCVRDRAGFFAYWGQGTTVTVSS
VL: DIQMTQSPSSLSASVGDRVTITCLASQTIGTWLGWYQQKPGKAPKLLIYAATSLAEGVPSRFSGSGSGTDFTLTISSLQPEDFATYYCQQLYSTPLTFGGGTKVEIKR
  IC50 (read off the curve): 3 nM

B2: humanized anti-LAIR-1 antibody Hz62G10.v1 (antibody, human IgG1, kappa, N297G, V domains shown)
VH: EVQLVESGGGLVKPGGSLRLSCAASGFTFNINAMNWVRQAPGKGLEWVARIRTKNNNFATYYADSVKDRFTISRDDSKNTLYLQMNSLKTEDTAVYYCVRGPYFDYWGQGTLVTVSS
VL: DIQMTQSPSSLSASVGDRVTITCLASQTIGTWLAWYQQKPGKAPKLLIYAATSLADGVPSRFSGSGSGTDFTLTISSLQPEDFATYYCQQLYSTPYTFGGGTKVEIKR
  IC50 (read off the curve): 3 nM

B3: anti-LAIR-1 antibody ch57D12 (antibody, V domains shown)
VH: QVQLQQSGAELARPGASVNLSCRASGYSFTSFGISWVKQRTGQGLEWIGEIYPRSDNTFYNEKFKGKATLTADKSSSTAYMELRSLTSEDSAVYFCARHFGSSSFDYWGQGTTLTVSS
VL: ENVLTQSPPIMAASLGQKVTMTCSASSSVSSIYFHWYQQKSGTSPKPLIHRASNLASGVPARFSGSGSGTSYSLTISSVEAEDDATYYCQQWSGYPLTFGGGTKLEIK
  IC50 (read off the curve): 6 nM

B4: anti-LAIR-1 antibody ch47H1 (antibody, V domains shown)
VH: EVQLVETGGGLVQPKGSLKLSCAASGFTFNINAMNWVRQAPGKGLEWVARIRTKNNNYATFYADSVKDRFTISRDDSQSMLYLQMNNLKTDDTAMYYCVRDRAGFFAYWGQGTPVTVSA
VL: DIQMTQSPASQSASLGESVTITCLASQTIGTWLGWYRQKPGKSPQLLIYAATSLADGVPSRFSGSGSGTKFSFKISSLQAEDFVIYYCQQLYSTPLTFGSGTKLEIK
  IC50 (read off the curve): 3 nM

B5: anti-LAIR-1 antibody ch62G10 (antibody, V domains shown)
VH: EVQLVETGGGLVQPKGSLKLSCATSGFTFNINAMNWVRQAPGKGLEWVARIRTKNNNFATYYADSVKDRFTISRDDSQSMLYLQMNNLKTEDTAMYYCVRGPYFDYWGQGTTLTVSS
VL: DIQMTQSPASQSASLGESVTITCLASQTIGTWLAWYQQKPGKSPQLLIYAATSLADGVPSRFSGSGSGTKFSFKISNLQAEDFVTYYCQQLYSTPYTFGGGTKLEIK
  IC50 (read off the curve): 3 nM
